# Data published in patent publication US10442866 (BEIJING MABWORKS BIOTECH, dated 2019).
# T1: human OX40 expressed on HEK293A cells (human, UniProt P43489 29-277)
# T1 construct: also called HEK293A/huOX40; HEK293A/human OX40 cells
# T1 sequence: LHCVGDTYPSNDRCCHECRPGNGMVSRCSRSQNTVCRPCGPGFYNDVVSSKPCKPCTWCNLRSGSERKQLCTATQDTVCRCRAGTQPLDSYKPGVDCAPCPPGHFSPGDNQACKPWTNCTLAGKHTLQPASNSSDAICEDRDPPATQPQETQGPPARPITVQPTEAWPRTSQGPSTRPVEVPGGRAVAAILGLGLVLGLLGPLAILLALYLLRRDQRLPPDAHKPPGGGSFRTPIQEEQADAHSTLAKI
# T2: rhesus OX40 expressed on HEK293A cells (rhesus, UniProt P43489 29-277 (human entry))
# T2 construct: also called HEK293A/rhOX40; HEK293A/rhesusOX40 cells
# T2 chain: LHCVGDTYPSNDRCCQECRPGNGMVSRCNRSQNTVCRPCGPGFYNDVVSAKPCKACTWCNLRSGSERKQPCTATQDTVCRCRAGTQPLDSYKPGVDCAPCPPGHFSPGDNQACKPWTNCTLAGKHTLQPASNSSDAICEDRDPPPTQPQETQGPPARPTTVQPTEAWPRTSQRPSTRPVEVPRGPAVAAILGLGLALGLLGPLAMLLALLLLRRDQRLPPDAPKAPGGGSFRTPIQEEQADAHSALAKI
# T3: recombinant rhesus OX40-his (Sino Biological, Cat#:90846-C08H) (rhesus monkey, UniProt P43489 29-214 (human entry))
# T3 construct: bought protein; also called monkey OX40-his; rhOX40-his; not shown: His tag
# T3 chain: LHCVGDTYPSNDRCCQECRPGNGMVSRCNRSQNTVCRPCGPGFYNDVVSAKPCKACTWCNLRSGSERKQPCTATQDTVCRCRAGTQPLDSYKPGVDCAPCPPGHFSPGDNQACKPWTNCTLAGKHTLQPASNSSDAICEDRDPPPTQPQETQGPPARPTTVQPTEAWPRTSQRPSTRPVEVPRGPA
# T4: human OX40-CD40 fusion protein on HEK-Blue reporter cells (human)
# T4 chain: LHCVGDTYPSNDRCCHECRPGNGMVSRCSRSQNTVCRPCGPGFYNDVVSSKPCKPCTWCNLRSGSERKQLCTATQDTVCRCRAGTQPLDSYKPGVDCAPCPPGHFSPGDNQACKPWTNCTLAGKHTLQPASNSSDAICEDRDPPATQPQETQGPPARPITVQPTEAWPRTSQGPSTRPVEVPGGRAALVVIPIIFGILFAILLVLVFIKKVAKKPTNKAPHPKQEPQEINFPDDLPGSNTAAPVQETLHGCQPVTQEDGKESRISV
# T5: mouse OX40 expressed on HEK293A cells (mouse, UniProt P47741 20-272)
# T5 construct: also called HEK293A/muOX40; HEK293A/mouseOX40 cells
# T5 sequence: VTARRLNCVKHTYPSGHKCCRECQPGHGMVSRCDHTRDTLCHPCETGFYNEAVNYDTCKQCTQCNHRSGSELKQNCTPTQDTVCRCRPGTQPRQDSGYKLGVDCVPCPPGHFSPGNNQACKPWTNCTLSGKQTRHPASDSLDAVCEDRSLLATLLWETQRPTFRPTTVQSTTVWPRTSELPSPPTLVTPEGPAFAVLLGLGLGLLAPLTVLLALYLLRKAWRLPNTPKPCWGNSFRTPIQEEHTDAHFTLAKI
# T6: murine OX40-His (Crown, Cat#: E3350-B1707) (mouse, UniProt P47741 20-211)
# T6 construct: bought protein; also called mouse OX40-his; muOX40-his; not shown: His tag
# T6 sequence: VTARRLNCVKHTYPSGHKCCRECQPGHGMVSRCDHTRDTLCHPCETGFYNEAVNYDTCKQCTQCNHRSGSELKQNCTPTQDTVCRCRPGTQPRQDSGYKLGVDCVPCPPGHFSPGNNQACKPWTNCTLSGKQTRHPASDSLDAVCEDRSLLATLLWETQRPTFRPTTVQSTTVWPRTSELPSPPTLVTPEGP
# T7: recombinant human OX40-his (Sino Biological, Cat#:10481-H03H) (human, UniProt P43489 29-214)
# T7 construct: bought protein; also called hOX40-his; not shown: His tag
# T7 sequence: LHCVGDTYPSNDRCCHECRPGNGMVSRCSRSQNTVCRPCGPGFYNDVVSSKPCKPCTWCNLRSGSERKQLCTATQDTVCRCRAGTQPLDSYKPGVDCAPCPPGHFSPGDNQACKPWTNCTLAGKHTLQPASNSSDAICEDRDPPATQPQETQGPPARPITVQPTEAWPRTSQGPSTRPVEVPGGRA
# How the values were obtained:
# [1] = biological target: T1, human OX40 expressed on HEK293A cells; experiment: FACS on HEK293A cells
# Procedure: (§1) Briefly, 10^5 HEK293A cells were seeded into each well of the 96-well plates and serially diluted anti-OX40 antibodies were added to the plates. After incubated at 4° C. for 1 hour, plates were washed 3 times with PBST. Then, an APC coupled Goat Anti-Mouse IgG (BioLegen, US, Cat#: 405308) diluted 500× was added to the plates. After incubation at 4° C. for 1 hour, the plates were washed with PBS for 3 times and then cell fluorescence was monitored using a FACS machine (BD).
# [2] = biological target: T2, rhesus OX40 expressed on HEK293A cells; experiment: FACS on HEK293A cells
# Procedure: as §1
# [3] = biological target: T3, recombinant rhesus OX40-his (Sino …); experiment: ELISA, coated rhOX40-his
# Procedure: (§2) ELISA plates were coated with 500 ng/ml human OX40-his (used in Example 2) at 4° C. overnight. The wells were blocked with 200 µl of blocking buffer (PBS containing 1% BSA, 1% goat serum, 0.05% Tween 20) for 2 hours at room temperature, and then 100 µl of serially diluted anti-OX40 antibodies (starting from 40 µg/ml) were added to each well and incubated for 1 hour at RT. Plates were washed for 3 times with PBST (PBS+0.05% Tween 20), added with Goat-anti-mouse IgG-HRP (Simga, US, Cat#: A9309-1 ml) diluted 5000×, and incubated for 1 hour at RT. Plates were developed with freshly prepared Ultra-TMB (BD, US, Cat#: 555214) for 5 minutes at RT. Absorbance was read on a SpectraMax® i3× (Molecular Devies, US) at 450 nm.
# Species-cross-reactivity of the 33 OX40 mAbs to monkey or mouse OX40 was further assessed by direct ELISA. Briefly, 500 ng/ml monkey OX40-his or mouse OX40-his (used in Example 2) was coated on 96-well ELISA plates followed by incubation with 100 µl of serially diluted anti-OX40 antibodies (starting from 40 µg/ml). Goat anti-mouse IgG (Sigma, US, Cat#:A9309-1 ml) conjugated with HRP was used then.
# [4] = biological target: T4, human OX40-CD40 fusion protein on …; experiment: cell-based or functional assay
# [5] = biological target: T5, mouse OX40 expressed on HEK293A cells; experiment: FACS on HEK293A/muOX40 cells
# Procedure: as §1
# [6] = biological target: T6, murine OX40-His (Crown, Cat#: …); experiment: ELISA, coated muOX40-his
# [7] = biological target: T7, recombinant human OX40-his (Sino …); experiment: ELISA, coated hOX40-his
# Procedure: as §2
# [8] = biological target: T7, recombinant human OX40-his (Sino …); experiment: ELISA on coated human OX40-His, OD450
# [9] = biological target: T2, rhesus OX40 expressed on HEK293A cells; experiment: FACS on HEK293A/rhOX40 cells
# [10] = biological target: T3, recombinant rhesus OX40-his (Sino …); experiment: ELISA on coated rhesus OX40-His, OD450
# [11] = biological target: T1, human OX40 expressed on HEK293A cells; experiment: FACS on HEK293A/huOX40 cells
# [12] = biological target: T7, recombinant human OX40-his (Sino …); experiment: SPR Biacore 8K, OX40-His on chip, antibody injected
# Procedure: SPR assays were used to determine the binding affinity of the chimetic or humanized anti-OX40 antibodies to human OX40 with the BIAcore™ 8K instrument (GE Life Sciences). Briefly, 100-200 response units (RU) of human OX40-His protein (Sino Biological, CN, Cat#:10481-H03H, Lot no.: MA08MA3003) were coupled to CM5 biosensor chips (Cat#: BR-1005-30, GE Life Sciences), followed by blocking of un-reacted groups with 1M ethanolamine. Serially diluted antibodies at concentrations ranging from 0.3 µM to 10 µM were injected into the SPR running buffer (HBS-EP buffer, pH7.4, GE Life Sciences; US; Cat#:BR-1006-69) at 30 µL/minute. The binding capacitity was calculated with the RUs of blank controls subtracted. The association rate (k_a) and dissociation rate (k_d) were calculated using the one-to-one Langmuir binding model (BIA Evaluation Software, GE Life Sciences). The equilibrium dissociation constant K_D was calculated as the k_d/k_a ratio.
# [13] = biological target: T6, murine OX40-His (Crown, Cat#: …); experiment: ELISA on coated mouse OX40-His, OD450
# [14] = biological target: T2, rhesus OX40 expressed on HEK293A cells; experiment: FACS on HEK293A/rhesus OX40 cells, MFI (panel without title; monkey OX40 by the legend)
# Procedure: as §1
# Example 15 Humanized Anti-OX40 Antibodies Bound to Human or Rhesus OX40 Expressed on HEK293A Cells The humanized anti-OX40 antibodies were also tested for their ability of binding to HEK293A/huOX40 cells or HEK293A/rhOX40 cells, following the FACS analysis protocol as described in Example 5.
# [15] = biological target: T6, murine OX40-His (Crown, Cat#: …); experiment: ELISA
Binder,EC50 [1] [µg/mL],EC50 [2] [µg/mL],EC50 [3] [µg/mL],"EC50, agonistic activity in HEK-Blue assay [4] [µg/mL]",binding result [5],binding result [6],EC50 [7] [µg/mL],EC50 (read off the curve) [8] [µg/mL],EC50 [9] [µg/mL],EC50 (read off the curve) [10] [µg/mL],EC50 [11] [µg/mL],Kd [12] [nM],koff [12] [s⁻¹],kon [12] [M⁻¹ s⁻¹],binding result [13],binding result [14],binding result [15]
"68C8 (murine monoclonal antibody) (antibody, V domains shown) VH: QVQLQQSGAELVKPGASVKMSCKASGDTFTSYWITWVKQRPGQGLEWIGDIHPGSGSTNNNEKFKNKATLTVDTSSSTAYMQLSSLTSEDSAVYYCAKLRPYYFVYWGQGTTLTVSS VL: DIQMTQTTSSLSASLGDRVTISCRASQDISNYLNWYQQKPDGTVKLLIYYTSRLLSGVPSRFSGSGSGTDYSLTISNLEQEDIATYFCQQGNTLPLTFGAGTRLELK",0.113,0.095,0.06,0.0866,no binding,no binding (tested: serial dilution from 40 µg/ml),0.0483,–,–,–,–,–,–,–,–,–,–
"chimeric antibody 71H8 (antibody, human IgG1, kappa, V domains shown, mouse variable regions with human IgG1/kappa constant regions) VH: QVQLQQSGAELVKPGASVKMSCKASGYTFTSYWITWVKQRPGQGLEWIGDIYPGSGSTNQNEKFKSKATLTVDTSSSTAYMQLSSLTSEDSAVYYCAKLRPYYFVYWGQGTTLTVSS VL: DIQMTQTPSSLSASLGDRVTISCRASQDISNYLNWYQQKPDGTVKLLIYYTSRLLSGVPSRFSGSGSGTDYSLTISNLEQEDIATYFCQQGNTLPLTFGAGTKLELKR",–,–,–,–,–,–,–,~0.003,0.151,~0.003,0.144,0.158,8.28e-05,525000,no binding (tested: 10000 ng/ml (log 4)),–,–
"71H8 (murine monoclonal antibody) (antibody, V domains shown) VH: QVQLQQSGAELVKPGASVKMSCKASGYTFTSYWITWVKQRPGQGLEWIGDIYPGSGSTNQNEKFKSKATLTVDTSSSTAYMQLSSLTSEDSAVYYCAKLRPYYFVYWGQGTTLTVSS VL: DIQMTQTPSSLSASLGDRVTISCRASQDISNYLNWYQQKPDGTVKLLIYYTSRLLSGVPSRFSGSGSGTDYSLTISNLEQEDIATYFCQQGNTLPLTFGAGTKLELK",0.113,0.126,0.0501,0.0494,no binding,no binding (tested: serial dilution from 40 µg/ml),0.052,–,–,–,–,–,–,–,–,–,–
"71H8-VH3VL2 (antibody, human IgG1, kappa, V domains shown, humanized; also called 71H8-H3L2) VH: QVQLVQSGAEVKKPGASVKVSCKVSGYTFTSYWITWVRQRPGQGLEWIGDIYPGSGSTNQNEKFKSRVTLTVDTSTDTAYMELSSLRSEDTAVYYCATLRPYYFVYWGQGTLVTVSS VL: DIQMTQSPSSLSASVGDRVTITCRASQDISNYLNWYQQKPGKTPKLLIYYTSRLLSGVPSRFSGSGSGTDYTLTISSLQPEDFATYYCQQGNTLPLTFGQGTRLEIKR",–,–,–,–,–,–,–,~0.003,–,~0.003,–,37.2,0.00871,234000,–,binds,no binding
"6A12 (murine monoclonal antibody) (antibody, V domains shown) VH: QVQLQQSGPELVKPGASVKISCKASGYAFSSSWMNWVKQRPGKGLEWIGRIYPGDGITNYNGNFKGKATLTADKSSSTAYMQLSGLTSADSAVYFCAREFIPLGWGTGTTVTVSS VL: DIVMTQTPFSNPVTLGTSASISCRSSKSLLHSNGITYLYWYLQKPGQSPQLLIYQMSNLASGVPDRFSSSGSGTDFTLRISRVEAEDVGVYYCAQNLELPWTFGGGTKLEIK",0.406,0.253,0.05,0.274,no binding,no binding (tested: serial dilution from 40 µg/ml),0.0415,–,–,–,–,–,–,–,–,–,–
